Measured values: the nanobody polyreactivity screen of Harvey et al. (2022)

Assay: yeast display, Sf9 membrane polyspecificity reagent, FACS + sequencing; frameworks hold sequencing errors
In short: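 Synthetic nanobody libraries on Saccharomyces cerevisiae BJ5465 were galactose-induced for 36–48 hours, stained 1 hour at 4 °C with 10% biotinylated, detergent-solubilized Sf9 membrane reagent and enriched on streptavidin microbeads. FACS then separated cells into low and high (top ~1%) gates by anti-HA (expression) and streptavidin (reagent binding) fluorescence. Genes were colony-PCR amplified, MiSeq 2 × 250 sequenced and CDR-length filtered. A clone's polyreactivity label is that of its gate of origin.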

Row | Sequence | polyreactivity (PSR sort gate)
1 | QVQLVDSGGGLVQAGGSLRLSCAASGFTFVYNVMGWNIQAPGKERELVAAINAGGGSTYYADSVKGRFTISRDNAKNTVYLQMNSLKPEDTAVYYGNARVRVRVGRNWSSYYYWGQGTQVTVSS | high polyreactivity
2 | QVQLVESGGGLVQAGGSLRLSCAASGFTFYGYAMGWYRQAPGKERELVAAISSSGTSTYYADSVKGRFTISRDNAKNTVYLQMNSLKPEDTAVYYCAALVRGAYGYGYWGQGTQVTVSS | high polyreactivity
3 | QVQLVETGGGLVQAGGSLRLSCAASGRIFRTNAMGWYRQAPGKEREFVAAISKDGGRTYYADSVKGRFTISRDNAKNTVYLQMNSLKPEDTAVYYCNARHRYYRYGYWGQGTQVTVSS | high polyreactivity
4 | QVQLEESGVCLVQAGGSLRLSCAASGYIFISYARGWYREAPGKEREFVAAITGDGGSTYADSEKGRFTISRDNAKNTVYLLMNSLKPEDTAVYYCAVDGYGGEADYEFDHWGQGTQVNVSS | low polyreactivity
5 | QVQLVESGGGLVQAGGSLRLSCAASGIILRRYAMGWYRQAPGKERELVAAISSRGGSTYYADSVKGRFTISRDNAKNTVYLQMNSLKPEDTAVYYCANRPYGRSGGSRYDYWGQGTQVTVSS | high polyreactivity
6 | EEELVESGGGIVQAGGSLRLSCAASGFIFGYNAMGWYRQAPGKERELVAAISSGDDTNYADSVKGRFTISRDNAKNTVYLQMNSLKPEDTAVYYCAAEVWTAFTLGSYWSVVDYDYWGQGTQVSVSS | low polyreactivity
7 | QVQLVESGGGLVQAGGSLRLSCAASGSILGHYAMGWYRQAPGKERELVAAISSSGGSTYYADSVKGRFTISRDNAKNTVYLQMNSLKPEDTAVYYCAADRGRPFPRGTGYYYWGQGTQVTVSS | high polyreactivity
8 | QVQLGESGGGLVQAGGSLRLSSAASGRTFGSNAMGWYRQAPGKERELVAASSSTVSTNYADSEKGRFTISRDNAKNTVYLQMNSLKPEDTAVYYCNVTRHYSYVSEYDYWGQGTQVTVSS | low polyreactivity
9 | QVQLVESGGGLVQAGGSLRLSCAASGFIFETNAMGWYRQAPGNERELVAAISSRGGSTYYADSVKGRFTISRDNAKNTVYLQMNSLKPEDTAVYYCAAKLVVSYGQEYDYWGQGTQVTVSS | low polyreactivity
10 | QVQLVESGGGLVQAGGSLRLSCAASGFIFKWYAMGWYRQAPGKERELVAAISTSGGSTYYADSVKGRFTISRDNAKNTVYLQMNSLKPEDTAVYYCAVLVGRLVWSYNHWGQGTQVTVSS | high polyreactivity
11 | QVQLVESAGGLVQAGGSLRLSCAASAFTFFDYVMGWYRQAPGKERELVAAISRNVGSTYYADSVKGRFTISRDNAKNTVYLQMNSLKPEDTAVYYCAGEPPPYEYDYWGQGTQVTVSS | high polyreactivity
12 | QVQLVESGGGLVQAGGSLRLSCAASGFTFTYYAMGWYRQAPGKERELVAVISSAGSTYYADSVKGRFTISRDNAKNTVYLQMNSLKPEDTAVYYCNAVGRYYSSGRYGHWGQGTQVTVSS | high polyreactivity
13 | QVQLVESRGGLVQAGGTLRLSCAASGSTFAVNAMGWYRQAPGKERELVATITGSGGSTYYADSVKGRFTISRDNAKNTVYLQLNSLKPEDTAVYYCATDLVFDKRYWYDYWGQGTQVTVSS | low polyreactivity
14 | QDQLVESGGGLVQAGGSLRLSCAASGSTFQDYAMGWYRQAPGKERELVAAITYSGGSTYYADSVKGRFTISRDIAKNTVYLQMNSLKPEDTAVYYCAAKDTTVFYYDDDYWGHGTQVTVSS | low polyreactivity
15 | QVQLVESGGGLVQAGGSLRLSCAASGSTFYIYAMGWYRQAPGKERELVARITRGGTTYADSVKGRFTISRDNAKNTVYLQINSLKPEDTAVYYCAARSFNIRGRYDYWGQGTQVTVSS | high polyreactivity
16 | QVHLVESGGGLVQAGGSLRLSCAASGRISWGYAMGWDRQAPGKERELVAVINFNGGRTYYADSVKGRFTISRDNAKNTVYLQMNSLKPEDTAVYYCAADSGYEYDYWGQGTQVTVSS | low polyreactivity
17 | QVQLVESGGGLVQAGGSLRLSCAASGSTFYLYVMGWYRQAPGKERELVAAIRRSGTRTYYADSVKGRFTISRDNAKNTVYLQMNSLKPEDTAVYYCAARYSRPSKAYGYWGQGTQVTVSS | high polyreactivity
18 | QVQLVESGGGLVQAGGSLRLSCAASGSIFQTYAMGWYRQAPGKERELVAAIDGGDTTNYADSVKGRFTISRDNAKNTVYLQMNSLKPEDTAVYYCNADWGQVTQVTVSS | low polyreactivity
19 | QVQLVESGGGLVQAGGSLRLSCAASGSTFDVNAMGSYRQAPGKERELVAAISWNSGSTYFADSVKGRFTISRDNAKNTVYLQMNRLKPEDTAVYYCAATYGTGRRSKYGYWGQGTQVTVSS | high polyreactivity
20 | QVQLVESGGALVQAGGSLRLICAASGRIFQRYTKGWYRQAPGKERELVAAITYSGGRTYYADSVKGRFTISRDNAKNTVYLQMNSLKPEDTAVYYCYAAYFNWYTHVWNDYWGQGTQVTVSS | high polyreactivity
21 | QVQLVESGGGLVQAGGSLRLSCAASGITFNYYAMGWYRQAPGKERELVAVISSSGGRTYYADSVKGRFTISRDNAKNTVYFQMNSLKPEDTAVYYCGAGCSVAFYYWGQGTQVTVSS | high polyreactivity

Row | Sequence | polyreactivity (PSR sort gate)
22 | QVQLVESGRGLVQAGGSLRLSCAASGFIFSYYAMGWYRPAPGKERELVAAITVTGGNTNYADSVKGRFTISRDNAKNTVYLQMNSLKPEDTAVYYCAAVVRGPGVYVYDWGQGTQVTVSS | low polyreactivity
23 | QVQLVESGGGLVQAGGSLRLSCAASGRISSLYAMGWYRQAPGKERELVAGITWRGGSTYYADSVKGRFTISRDNAKNTVYLQMNSLKPEDTAVYYCNAVWVQQVVGDGKRTWNFWYDYWGQGTQVTVSS | low polyreactivity
24 | QVQLVESGGGLVQAGGSLRLSCAASGRIFRRYAMGWYRQAPGKERELVATISRGGSNTSYADSVKGRFTISRDNAKNTVYLQMNSLKPEDSAVYYCAKGSVRYYVGFDYWGQGTQVTVSS | high polyreactivity
25 | QVQLVESGGGLVQAGGSLRLSCAASGFTFFGYAMGWYRQAPGKERELVATISDTGGSTYADSVKGRFTISRDNAKNTVYLQMNSLKPEDTAVYYCNARSVFYSMDYWGQGTQVTVSS | low polyreactivity
26 | QVQLVESGGGLFQAGGSLRLSCSASGSIFKRYAMVWYRQAPGKERELVARITNRSGNTYYADSVKGRFTISRDNAKNTVYLQMISLKPEDSAVYYRAATKSLGRYYMYYWGQGTQVTVSS | low polyreactivity
27 | QVQLVESGVGLVQAGGSLRLSCAPSGRIFGTYAMVWYRQAPGKERELVASITDRGDSTYADSVKGRFTISRDNAKNTVYLQMNSLKPEDTAVYYCAADGWWHNFYPGTGLDYWGQGTQVTVSS | low polyreactivity
28 | QVQLVESGGGLVQAGGSLRLSCAASGSTFYTNAMGWYRQAPGKERELVAASNYSGGSTYYADSVKGRFTISRDNAKNTVYLQMNSLKPEDTAVYYCATDLHWLVTKYGYWGQGTQVTVSS | low polyreactivity
29 | QVQLVESGGGLVQAGGSLRLSCAASGRTFRRYVMGRYRQAPGKEMEMVARITTSGGNTYYADSVKGRFTISRDNAKITVYLQMNSMKPEVTAVYYCAADFLRTYKEYNLGYWGQGTQVTVSS | low polyreactivity
30 | QVQLQESGGGLVQAGGSLRLSCAASGSIFVSVTMGWYRQAPGKERELGASIGRGSTTNHADSVKGRFTISRDNAKNIVYLLMNSLKPEDTAVYYCAALESYGKYHGYWGQGTLVTVSS | low polyreactivity
31 | QDQLVESGGGLVQAGGSLRLSCAASGSTIFVYTMGWYRQAPGKERELVAAISGSGGSTSYADSVKGRFTISRDNAKNTVYLQMNSLKPEDTAVYYCAARRHVYLRGSTFEFYYWGQGTQVTVSS | high polyreactivity
32 | QVQLVESGGGLVQAGGSLRLSCAASGFTLYSYAMGWYRQAPGKERELVAAISWSGTRTYYADTVKGRFTISRDNAKNTVYLQMNSLKPEDTAVYYCAARGYRYGYGYWGQCTQVTVSS | high polyreactivity
33 | QVQLVESGGGLVQAGGSLRLSCAASGRSFGHYAMGWYRQAPGKERELVAAITTGGNTYYADSVKGRFTISRDNAKNTVYLQMNSLKPEDTAVYYCAKRGYPYKYKYWQVYAAYDYWGQGTQVTVSS | low polyreactivity
34 | QVPLVESGGGLVQAGGSLRLSCAASGRIFKSNAMGWYRQAPGKERELVAAISYSGGSTYYADSVKGRFTISRDNAKKTVYLQMNRLKPEDTAVYYCNKYFRREYDYWGQGTQVTVSS | high polyreactivity
35 | QVQLVESGGGLVQAGGSRRLSCAASGRSFYGNAMGWYRQAPGTERECVAGISWRGGRTYYADSVKGRFTISRDNANNTVYLQMNSLKPEETAVYYCAASAGYRGRSGYEYWGQGTQVTVSS | high polyreactivity
36 | QDQHVESGGGVVQAGGSRRLSCAASGFTISSYAMGWYRPAPGKERHLVAAITWSGSRTYYADSVKGRFTISRDNAKNTVYLQMNSLKPEDTAVYYCAATYRSYRGVRYYLGQGTQVTVSS | high polyreactivity
37 | QVQLVESGGGLVQAGGSLRLSCAASGSTDSNAMGWYRQAPGKERELVAAISGTGSRTYYADSVKGRFTISRDNAKNTVYLQMNSLKPEDTAVYYCAAYSGYYRPRYNYWGQGTQVTVSS | high polyreactivity
38 | QVQLVESGGGLVQAGGSLRLSRAASGSTLSLYAMGWYRQAPGKERELVAAITSSGGTYYADSVKGRFTISRDNAKNTVYLQMNSLKPEDTAVYYCAADPRSYFTSEYWGQGTQVTVSS | high polyreactivity
39 | QVQLVESGGGLVQAGGSLRLSCAASGFIFRKYAMGWYRQAPGKERELVAAITSSGGSTYYAGSVKGRFTISRDNAKNTVYLQMNSLKPEDTAVYYCAARLKQSGHDYWGQGTQVTVSS | high polyreactivity
40 | QVQLVESGGGLVQAGGSLRLSCAASGFIYRDYVMGWYRQAPEKERELVAAISYRGGSTNYADSVKGRFTISRDNAMNTVFLQMNSLKPEDTSVYYCAADQVHKREYEYWGQGTQVTVSS | low polyreactivity
41 | QVQLVESGGGLVQAGGSLRLSCAASGRIFWINAMGWYRQAPGKERELVAAISWRGDSTYYADSVKGRFTISRDNAKNTVYLQMNSLKPEDTAVYYCAAETRYLYDYWGQGSQVTVSS | high polyreactivity
